From patent US20190376079A1 (WHITEHEAD INSTITUTE FOR BIOMEDICAL RESEARCH, published 2019)

Molecular target: SBP-tagged EF2 purified from WDR85 deficient (WDR85GT) cells (human, UniProt P13639 1-858)
Assay: co-purification with SBP-tagged EF2 on streptavidin sepharose from WDR85GT cells; silver stain, mass spectrometry, immunoblot
Excerpt: Proteins were separated using SDS-PAGE gel electrophoreses and visualized using silverstaining. For mass spectrometry, the EF2 band was purified from gel and digested using trypsin.

B1: DPH5 (enzyme)
chain: MLYLIGLGLGDAKDITVKGLEVVRRCSRVYLEAYTSVLTVGKEALEEFYGRKLVVADREEVEQEADNILKDADISDVAFLVVGDPFGATTHSDLVLRATKLGIPYRVIHNASIMNAVGCCGLQLYKFGETVSIVFWTDTWRPESFFDKVKKNRQNGMHTLCLLDIKVKEQSLENLIKGRKIYEPPRYMSVNQAAQQLLEIVQNQRIRGEEPAVTEETLCVGLARVGADDQKIAAGTLRQMCTVDLGEPLHSLIITGGSIHPMEMEMLSLFSIPENSSESQSINGL
notes: also called methyltransferase DPH5
binding result: binds
